Target: T1, FKBP-associated protein FAP48 (FAP48), amino acids 118-418, bait fused to the Gal4 DNA binding domain (human, UniProt P04386 1-147 (Saccharomyces cerevisiae entry))
T1 construct: range 1-147; Bait of the yeast two-hybrid screen; The coordinates 118-418 are counted on GenBank U73704
Assay: yeast two-hybrid; listed as prey of the bait in 'Binding Regions of FAP48 and Its Interacting Partners'; true positive by beta-galactosidase assay
From the text: The new construct was selected directly in the yeast strain PNY200 for its ability to drive tryptophane synthesis (genotype of this strain: MATα trp1-901 leu2-3, 112 ura3-52 his3-200 ade2 gal4Δ gal80). In these yeast cells, the bait was produced as a C-terminal fusion protein with the DNA binding domain of the transcription factor Gal4 (amino acids 1 to 147). Prey libraries were transformed into the yeast strain BK100 (genotype of this strain: MATa trp1-901 leu2-3,112 ura3-52 his3-200 gal4Δ gal80 LYS2::GAL-HIS3 GAL2-ADE2 met2::GAL7-lacZ), and selected for the ability to drive leucine synthesis. In these yeast cells, each cDNA was expressed as a fusion protein with the transcription activation domain of the transcription factor Gal4 (amino acids 768 to 881) and a 9 amino acid hemagglutinin epitope tag. PNY200 cells (MATα mating type), expressing the bait, were then mated with BK100 cells (MATa mating type), expressing prey proteins from a prey library. The resulting diploid yeast cells expressing proteins interacting with the bait protein were selected for the ability to synthesize tryptophan, leucine, histidine, and adenine. […]

binding result: binds
B1: Dynactin (DCTN1(1278), p150-Glued), amino acids 1063-1205, prey fused to the Gal4 activation domain (other, UniProt P04386 768-881, looked up, not shown: small tags and cut ends)
chain: ANFNQSGNIADSSLSFTFTNSSNGPNLITTQTNSQALSQPIASSNVHDNFMNNEITASKIDDGNNSKPLSPGWTDQTAYNAFGITTGMFNTTTMDDVYNYLFDDEDTPPNPKKEIAGEEQQRGAIPGQAPGSVPGPGLVKDSPLLLQQISAMRLHISQLQHENSILKGAQMKASLASLPPLHVAKLSHEGPGSELPAGALYRKTSQLLETLNQLSTHTHVVDITRTSPAAKSPSAQLMEQVAQLKSLSDTVEKLKDE
notes: range 768-881;range 1063-1205; Prey clone of the yeast two-hybrid screen; Coordinates are counted on the GenBank entry; also called 150 kD dynein-associated polypeptide; DP-150

Source: patent US7091173 (MYRIAD GENETICS, dated 2006)
